# Biological target: human TREM2 Ig domain (aa 19-134), wild type, biotinylated on a BirA tag (human) (UniProt Q9NZC2)
# Assay: BLI
# Sequence of human TREM2 Ig domain (aa 19-134), wild type, biotinylated on a BirA tag (human) (Q9NZC2 19-134): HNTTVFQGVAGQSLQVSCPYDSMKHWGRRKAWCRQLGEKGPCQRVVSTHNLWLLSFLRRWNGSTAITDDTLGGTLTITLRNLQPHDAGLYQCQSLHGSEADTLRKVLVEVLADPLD
substance,measurement,value
ApoE3 1-238 (C-term deletion) (domain or fragment),Kd,696 nM

# From publication PMC8026773
